B1: VG9B372 (antibody, human IgG1, kappa, V domains shown)
VH: QVQLQESGPGLVKPSQTLSLTCTVSGGSISNGGFYWSWIRQHPGKGLEWLGYINYSGSTYYNPSLESRGTISLDTSKNQFSLKLRSVTAADTAVYYCARDRNYEWNFDLWGRGTLVTVSS
VL: EIVMTQSPATLSLSPGEGATLSCRASQSVSSYLAWYQQKPGQAPRLLVYDASNRATGIPARFSGSGSGTAFTLTITSLEPEDFVVYYCQQRSNWPLTFGGGTKLEIKR
notes: IgG1, kappa
B2: VG9B208 (antibody, human IgG1, lambda, V domains shown)
VH: QVQLQESGPGLVKPSETLSLTCTVSGGSISGYYWSWIRQPPGKGLELIGYIFYSGSINYNPSLKNRVTISLDTSKNQFSLKLTSVTAADTAVYYCARVGKWELRSSFDIWGQGTMVTVSS
VL: QSVLTQPPSVSAAPGQKVTISCSGSTSNIGNNDVSWYQQLPGTAPKLLIYDNNKRPSGIPDRFSGSKSGTSATLGITGLQTGDEADYYCGTWDSSLSVWVFGGGTKLTVLG
notes: IgG1, lambda
B3: VG9B186 (antibody, human IgG1, lambda, V domains shown)
VH: QVTLRESGPVLVKPTETLTLTCTVSGFSLTNIRMSVSWIRQPPGEALEWLAHIFSNDEKSYNSSLKSRLTISRDTSKSQVVLTLTNVDPVDTATYYCARMRLPYGMDVWGQGTMVTVSS
VL: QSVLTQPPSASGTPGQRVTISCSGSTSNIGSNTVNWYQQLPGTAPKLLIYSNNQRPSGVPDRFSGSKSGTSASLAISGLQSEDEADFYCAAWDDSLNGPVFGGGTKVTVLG
notes: IgG1, lambda
B4: VG9B114 (antibody, human IgG1, kappa, V domains shown)
VH: EVQLVESGGDLVQPGGSLRLSCAASGFTFSRYDMHWVRQATGKGLEWVSAIGSAGDTYYPGSVKGRFTISRENAKNSLYLQMNSLRAGDTAVYYCARGKWELRDAFDIWGQGTMVTVSS
VL: DIVMTQSPSFLSASVGDRVTITCRASQGIHSYLAWYQQKPGKAPKLLIYVASTLQSGVPSRFSGSRSGTEFTLTISSLQPEDFATYYCQQLNSYPYTFGQGTKLEIKR
notes: IgG1, kappa
B5: VG9B87 (antibody, human IgG1, kappa, V domains shown)
VH: QVQLVESGAEVKKPGASVKVSCKASGYTFTSEYIHWVRQAPGQGLEWMGIINPSGGSTSYAQRFQGRVTMTRDTSTSTVYMEVNSLRSEDTAVYYCARERGYSYGSFDYWGQGTLVTVSS
VL: EIVLTQSPSFLSASAGDRVTITCRASQGISSYLAWYQQKPEKAPKLLIYAASTLQSGVPSRFSGSGSGTEFTLTISSLQPEDFATYYCQQFNSYSLTFGGGTKLEIKR
notes: IgG1, kappa
B6: VG9B147 (antibody, human IgG1, lambda, V domains shown)
VH: QVQLQESGPGLVNPSETLSLTCTVSGGSISGYFWNWIRQPPGKGLEWIGYIFYSGSTNYNPSLKSRVTISVDTSKNQFSLKLSSVTAADTAIYYCAREGKWELRSTFDIWGQGTMVTVSS
VL: SSELTQDPAVSVALGQTVRITCQGDSLRSYYATWYQQKPGQAPILVIYGENNRPSGIPDRFSGSRSGNTASLTITGAQAEDEADYYCNSRDTGDHHLVFGGGTKLTVLG
notes: IgG1, lambda
B7: VG9B177 (antibody, human IgG1, lambda, V domains shown)
VH: QVQLQESGPGLVKPSETLSLTCTVSGGSINNYFWSWIRQPPGKGLEWIGYIFYSGSTNYNPSLKSRVTISIDTSKNQFSLKVNSVTAADTAVYYCARVGKWELRTAFDIWGQGTMVTVSS
VL: QSALTQPASVSGSPGQSITISCTGTSSDVADYNYVSWYQQHPGKAPKLMIYEVSNRPSGVSNRFSGSKSGNTASLTISGLQAEDEADYYCCSYTSSFTVVFGGGTKVTVLG
notes: IgG1, lambda
B8: VG9B156 (antibody, human IgG1, lambda, V domains shown)
VH: QVQLQESGPGLMKPSETLSLTCTVSNGSISGYFWNWIRQPPGKGLEWIGYIFYSGSTNYNPSLKSRVTISVDTSKNLVSLKLNSVTAADTAVYFCAKLGKWELRTAFDIWGQGTMVTVSS
VL: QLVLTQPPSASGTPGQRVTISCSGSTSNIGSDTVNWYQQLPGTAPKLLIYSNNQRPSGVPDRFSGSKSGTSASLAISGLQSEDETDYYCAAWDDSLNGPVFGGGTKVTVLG
notes: also called antibody #69
B9: VG9B205 (antibody, human IgG1, lambda, V domains shown)
VH: QVQLVQSGPGLMKPSETLSLTCTVSNGSISGYFWNWIRQPPGKGLEWIGYIFYSGSTNYNPSLKSRVTISVDTSKNLVSLKLNSVTAADTAVYFCAKLGKWELRTAFDIWGQGTMVTVSS
VL: not shown
notes: also called antibody #70
B10: VG9B159 (antibody, human IgG1, lambda, V domains shown)
VH: EVQLVQSGPGLVKPSETLSLTCTVSGGSISSYYWSWIRQPAGKGLEWIGRFYTGGRNNYNPSFKSRVTMSVDTSQNQFSLKLSSVTAADTAVYYCARDMEYYYDRSGYSYWYFDLWGRGTTVTVSS
VL: SYELMQPPSVSVAPGQTARITCGGNNIGSKSVHWYQQKPGQAPVLVVYDDSDRPSGIPERFSGSNSGNTATLTISRVEAGDEADYYCQVWDSSSDHVVFGGGTKLTVLG
notes: also called antibody #73
B11: VG9B382 (antibody, human IgG1, lambda, V domains shown)
VH: QVQLQESGPGLVKPSETLSLTCTVSGDSISGYYWNYIRQPAGKGLDWIGRIFTTGNTNYNPSLKSRVTMSVDTSKNQFSLKLTSVTAADTAVYYCARERWDSSSSALYFDYWGQGTLVTVSS
VL: QSVLTQPPSVSGAPGQRVTISCTGSSSNIGADYDIKWYQQLPGTAPKLLIYGNSNRPSGVPDRFSGSKSGTSVSLAITGLQAEDEADYYCQSYDSSMSGYVVFGGGTKLTVLG
notes: also called antibody #68
B12: VG9B182 (antibody, human IgG1, lambda, V domains shown)
VH: QVQLVESGPGLVKPSETLSLTCTVSGDSINNHFWSWIRQPPGKGLEWIGFVFYNGNTNYNPSLKSRVTISIDTSKSQFSLKLTSVTAADTAVYYCARVGRWVLRTAFDIWGQGTMVTVSS
VL: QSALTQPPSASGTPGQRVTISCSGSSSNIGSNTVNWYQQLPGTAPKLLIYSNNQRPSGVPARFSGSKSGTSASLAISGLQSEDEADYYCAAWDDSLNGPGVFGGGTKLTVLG
notes: also called antibody #76
B13: VG9B194 (antibody, human IgG1, lambda, V domains shown)
VH: EVQLLESGAEVKKPGASVKVSCKASGYTFTGDYMHWVRQAPGQGLEWMGWINPNSGYTNNAEKFQGRVTMTRDTSISTAYMELSRLSSDDTAVYYCTRELDALDVWGQGTMVTVSS
VL: QSVLTQPPSASGSPGQSVTISCTGTSSDVGGYNYVSWYQQHPGKAPKLMIYEVSKRPSGVPDRFSGSKSGNTASLTVSGLQAEDEADYYCNSYAGSNNFEVFGGGTKVTVLG
notes: also called antibody #75
B14: VG9B86 (antibody, human IgG1, kappa, V domains shown)
VH: QVQLQESGPGLVKPSETLSLTCTVSGDSISSSYWSWIRQPAGKGLECIGRFYSSGSTSYNPSLKSRVTMAIDTSKNQFSLKLTSVTAADTAVYYCARYSGSYWYFDLWGRGTTVTVSS
VL: EIVLTQSPATLSLSPGERATLSCRASQSVSSYLAWYQQRPGQAPRLLIYDTSNRATGIPARFSGSGSGTDFTLTISSLAPEDFAVYYCQQRSDWLLTFGGGTKVEIKR
notes: also called antibody #71
B15: VG9B201 (antibody, human IgG1, lambda, V domains shown)
VH: QVTLKESGPTLVKPTQTLTLTCTFSGFSLTTHGVGVGWIRQPPRKALEWLALIYWNADKHYSPSLKSRLTITKDTSKNQVVLTMTHMDPVDTATYYCAHEGDWGHYFDFWGQGTLVTVSS
VL: QLVLTQPPSVSAAPGQKVTISCSGSSSNIGNNDVSWYQQLPGTAPKLLIYDNNRRPSGIPDRFSGSKSGTSATLGITGLQTGDEADYYCETWDSSLSAIWVFGGGTKVTVLG
notes: also called antibody #65
B16: VG9B383 (antibody, human IgG1, lambda, V domains shown)
VH: QVQLQESGPGLVKPSETLSLTCTVSSGSISSYYWNWIRQPAGKGLEWVGRIYTIGNTNYNPSLKSRVTMSIDTSKNQFSLNLSSVTAADTAVYFCAREGYYDSSGSFFPGAFGIWGQGTMVTVSS
VL: SSELTQPASVSGSPGQSITISCTGTSNDVGSYNLVSWYQQHPGKAPKLMIYAGSKRPSGISNRFSGSKSGNTASLTISGLQAEDEADYYCCSFAGATNVVFGGGTKLTVLG
notes: also called antibody #67
B17: VG9B465 (antibody, human IgG1, lambda, V domains shown)
VH: QVQLQQSGPGLVKPSETLSLTCTVSGGSITSYYWNWIRQPAGKGLEWIGRIYTIGNTNYNPSLKSRVTMSIDTSKHQFSLKLSSVTGADTAVYYCAREGYYESDGSFFPGAFNIWGQGTMVTVSS
VL: SSELTQPASVSGSPGQSITISCTGTSNDVGSYNLVSWYQQHPGKAPKLMIYAGSKRPSGISNRFSGSKSGNTASLTISGLQAEDEADYYCCSYAGTTNVVFGGGTKVTVLG
notes: also called antibody #74
B18: VG9B169 (antibody, human IgG1, lambda, V domains shown)
VH: EVQLLESGPGLVKPSETLSLTCSVSGGSITNYFWNWIRQPPGKGLEWIGYIFYSGSTSYNPSLKSRVTISVDTSKNRFSLKLISVTAADTAVYYCARVGRWELRTAFDIWGQGTMVTVSS
VL: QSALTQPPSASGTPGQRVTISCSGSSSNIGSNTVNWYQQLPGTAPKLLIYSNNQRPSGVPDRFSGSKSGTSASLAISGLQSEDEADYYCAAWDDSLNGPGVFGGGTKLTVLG
notes: also called antibody #63
B19: VG9B639 (antibody, human IgG1, kappa, V domains shown)
VH: QVQLVQSGGGLVKPGGSLRLSCAASGFTFTTYRMNWVRQAPGKGLEWVSSISSSSIYIHSADSVKGRFTISRDNAKNSLYLQMNSLRAEDSAIYYCARERVYTVSFDYWGQGTLVTVSS
VL: DIQMTQSPSSLSASVGDRVTITCQASQDISHYLNWYQQKPGKAPKLLIYDSYILETGVTSRFSGSGSGTDFTFTINSLQPEDIAIYYCQQYDNLPYTFGQGTKVEIKR
notes: also called antibody #64
B20: VG9B161 (antibody, human IgG1, lambda, V domains shown)
VH: QVQLQESGPGLVKPSETLSLTCTVSGGSISSYFWSWIRQPPGKGLEWIGYIFYSGSTNYNPSLKSRVTILVDTSKNHFSLKLSSVTAADTAVYYCARVGRWELRGAFDIWGQGTMVTVSS
VL: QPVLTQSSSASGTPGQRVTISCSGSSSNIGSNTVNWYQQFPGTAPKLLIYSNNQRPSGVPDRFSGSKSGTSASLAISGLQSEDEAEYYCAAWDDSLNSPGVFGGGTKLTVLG
notes: also called antibody #66
B21: VG9B173 (antibody, human IgG1, lambda, V domains shown)
VH: QVQLQESGPGLVKPSETLSLTCTVSGGSINNYFWSWIRQPPGKGLEWIGYIYYSGSTNYNPSLKSRVTISVVTSMNQFSLKLSSVTAADTAVYYCAREGKWELRSAFDIWGQGTMVTVSS
VL: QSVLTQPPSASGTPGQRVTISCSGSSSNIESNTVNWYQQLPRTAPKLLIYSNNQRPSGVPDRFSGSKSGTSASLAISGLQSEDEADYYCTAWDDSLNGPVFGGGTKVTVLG
notes: also called antibody #77
B22: VG9B154 (antibody, human IgG1, lambda, V domains shown)
VH: QVQLQESGPGLVKPSETLSLTCTVSGGSISYYFWNWIRQPPGKGLEWIGYIYYSGSTNYNPSLKSRVTISLDTSKNQFSLKLSSVTAADTAVYYCAREGKWELRTTFDIWGQGTMVTVSS
VL: not shown
notes: also called antibody #72

What follows are binders tested against T1, gamma-delta T cell receptor on human γδ T cells (human) (assay: flow cytometry, dose-response binding at 37 C, human γδ T cells).
T1 construct: also called AG000003021 (γδ T cells)
Experimental: (§1) Binding of antibodies to human γδ T cells or SKW cell lines expressing Vγ9/Vδ2, Vγ9/Vδ2 or Vγ5/Vδ2 was carried out by flow cytometry. Briefly, the cells were centrifuged at 300×g for 5 minutes and the pellet was resuspended in 34 ml fresh media (in RPMI+10% FBS). 50 μL of the cells were then plated (44K cells/well) into assay plates. Samples were incubated for one hour at 37° C. in tissue culture (TC) incubator followed by wash steps by adding 100 μl FACS staining buffer. Secondary detention antibodies (A647 conjugated anti-human IgG Fc specific antibody (2 μg/mL) along with AF488 anti mouse CD3, clone OKT3 at 1 ug/mL) were added at 50 μL/well to appropriate wells according to the plate map. After incubating for 60 minutes at 37° C. in the TC incubator, cells were again washed as described above. This is followed by resuspension in 20 μL/well running buffer containing 1:1000 dilution of Sytox blue dead cell stain and the plates were run on iQue Screener.
(§2) Gating and data analysis: Human anti-human Vγ9 antibody (VG9B2 mAb at 10 nM) was used to mark the gating of positive population. All cells were first gated for singlets on SCS-A vs. SCS-H dot plot, live/dead followed by CD3 positive population, and this subset of CD3 positive population was gated for Vγ9 positive binding using positive control mAb. Cells were also assessed for cell binding of control mAbs by RL1 (A647) Geomeans from the live cell population. Advanced metrics were used and normalization metrics were chosen to calculate fold over background wells containing secondary antibody alone (designated as ‘background’ within ForeCyt settings).
With B1 the “Max. Activity” value was 2290 fold over background.
B2 was tested, and the “Max. Activity” value was 2310 fold over background.
For B3, the “Max. Activity” value was 2290 fold over background.
For B4, the “Max. Activity” value was 1980 fold over background.
B5 was tested, and the “Max. Activity” value was 2330 fold over background.
For B6, the “Max. Activity” value was 1890 fold over background.
With B7 the “Max. Activity” value was 2250 fold over background.

Each binder was assayed against T2, γδ T cell receptor on human γδ T cells (human) (assay: flow cytometry, dose-response (DRC) binding at 37°C on human γδ T cells).
T2 construct: also called AG000003021 (γδ T cells)
Experimental: as §1, §2
B8 was tested, and the “Max. Activity” value was 2700 fold over background.
B9 was tested, and the “Max. Activity” value was 2690 fold over background.
B10 was tested, and the “Max. Activity” value was 2510 fold over background.
B11 was tested, and the “Max. Activity” value was 2780 fold over background.
In the case of B12, the “Max. Activity” value is reported as 2370 fold over background.
B13 was tested, and the “Max. Activity” value was 2470 fold over background.
B14 was tested, and the “Max. Activity” value was 2670 fold over background.
For B15, the “Max. Activity” value was 3170 fold over background.
In the case of B16, the “Max. Activity” value is reported as 2780 fold over background.
With B17 the “Max. Activity” value was 2500 fold over background.
For B18, the “Max. Activity” value was 3250 fold over background.
For B19, the “Max. Activity” value was 3240 fold over background.
For B20, the “Max. Activity” value was 2820 fold over background.
For B21, the “Max. Activity” value was 2360 fold over background.
B22 was tested, and the “Max. Activity” value was 2590 fold over background.
